Experimental data: patent publication US20220356266A1

Molecular target: soluble full length KLK2 protein (human kallikrein-2 6-His protein) (human) (UniProt P20151)
Experiment: SPR; antibody captured on a chip coated with anti-Fc antibody, soluble hK2 injected, 1:1 Langmuir fit

Kd: 0.46 nM
B1: KL2B30 Fab (KLCB80) (Fab, V domains shown)
VH: QVQLQESGPGLVKPSETLSLTCTVSGGSISSYYWSWIRQPPGKGLEWIGYIYYSGSTNYNPSLKSRVTISVDTSKNQFSLKLSSVTAADTAVYYCAGTTIFGVVTPNFYYGMDVWGQGTTVTVSS
VL: DIQMTQSPSFLSASVGDRVTITCRASQGISSYLAWYQQKPGKAPKFLIYAASTLQSGVPSRFSGSGSGTEFTLTISSLQPEDFATYYCQQLNSYPLTFGGGTKVEIKR
